Reference: the DeepSol protein solubility set

test: soluble on expression in E. coli; label from the status in PepcDB or PDB records

Soluble on expression in E. coli, not soluble:
MTEHTAPTAPVADVCLLLEGTWPYVRGGVSSWVNQLILGLPDLTFSVFFIGGQKDAYGKRHYPIPDNVLHIEEHFLETAWSSPNPQTRQGSSETEKALRDLHRFFHYPETPDVEEGDALLDLLAEGRIGREDFLHSKASWEAITAGYERYCTDPSFVNYFWTLRSMQAPVFMLAEAARRMPRARMLHSISTGYAGLLGCILQRRWGCRYLLSEHGIYTKERKIDLAQANWIAENPDEQLSTGLDAEVSYIRRLWIRFFERVGLLTYRAANPIVALYEGNRQRQVLDGAEPRRTRVIPNGIDLDAWTGALERRPPGIPPVVGLVGRVVPIKDVKTFIRAMRGVVSAMPEAEGWIVGPEEEDPDYASECRSLVASLGLQDKVKFLGFRRIGEVLPQLGLMVLTSISEAQPLVILEAWAAGAPVVSSDVGSCRELIEGADAEDRALGRAGEVVAIADPQATSRAILALLRNPQRWQAAQAVGLQRVERYYTEALMLGRYRGLYREATEIA, MGSDKIHHHHHHMRNAHDILDNIVYDFANATGLGSVAVDLNGKEISPWYNFTSFCQQVRQIAAYHPYCQQCDRCGGFESTKAKQIQCYRCHAGLVDFSIPIFINGNLTGFVSCGQARVAENLPLPKIVENDKNLPTESKLIELYHEVPELSLMKIKSAAQLLNLIIENYLSKEYNLRIVKNVSPVKNQKLETLGRHQATMEMILNHINQNFSDNLNLEQMASKANLSMFYFSRTFKELTGTGFTAYLINKRMTEAHCLLEQTNWSIEKIARSVGYNDVHYFSRLFKKTFNRSPSEFRNHSSGFSM, MAHHHHHHMICEVLQCNRYPPCCGQYPNGEVNVVLPRSVRGDDLFVLQSLVRCDRVGLSHSGTLMELALMIHAARASSAARITAVIPYISFTESVSSMAAVAEILESMGCQHVITVDMPIDQVEGMFSVPLELISARYEFVQYIANQLTAEGHDFRNITVVAPNGAGVHRAKNFADALMQYKKLSPDEQFVPLCTAVRRQVYRGLQDTVLNINHCGANVGSTRAFEQALLQQEQGICAIQDDGDTTITSEGIDLVGDVQGKLCIVVDTSVDEATEICQTACKLREEGASRIILIATHFIISGRAVERLIESPIDLIVVTDSVEHDEVFKNPHIARRLRVLPIAPLLARAIEKLHTENSLTTLFEK, MSLSDSNDDRPFRPFQSQYRWPGVDLLAYKEEGSAPFRSVTRQVLFSGNGLTGELRYFEVGPGGHSTLERHQHAHGVMILKGRGHAMVGRAVSAVAPYDLVTIPGWSWHQFRAPADEALGFLCMVNAERDKPQLPTEGHHHHHH, MGSDKIHHHHHHMAKNKTAYVCNECGQDFPRWQGQCSACQEWNTITEVRLGAASPGRSTKFVGYAGASSNEVKTLDQIDLNAMPRILSHFGELDRVLGGGIVPGSAILIGGHPGAGKSTLLLQTLCHLAEQMPALYVTGEESLQQVAMRAHRLGLPTNKLRMLSETSVEQICEVALKELPKVIVVDSIQVMHMSDVASSPGSVSQVRESASYLTRFAKENGIAVIMVGHVTKDGSLAGPKVLEHCIDCSVMFEGDSDSRYRTLRSHKNRFGAINELGVFAMTERGLKEVANPSAIFLSRGEEESSGSLVMVVWEGTRPLLVELQVLVDNSAMSNPRRVAVGMDANRLAMLLAVMHRHGGLQMSDQDVFVNVVGGVKVTETSADLTLLLAMVSSFRGDILPSDLVAFGEVGLSGEIRPVPNGQERLIEAAKHGFKRAIVPKANVPKKPPAGMEVVGVSKLSEALEAI, MGSDKIHHHHHHMKTYDWIVVGGGMTGAVLAYELVKTGFSVLLLEKDAVAENATRYSYGGLAYWSGSTPLTRQLCQEARDRYNILPQELDADIELRELDLLLTIPADSDPQVTAELYAQCAVPPCLLSVPEACELELLLNPGAIAGALTVKHGHIHPQKTVQAYIQAFLRAGGELQIGEVSQVTSGGVKTTTVTYHSANVVVCAGGLSRRLLKSVGVSIKVYFTHAEIIETPPVDLRLNTLVMPANLQRFKLESTSTEVDELWNKPGNQLAPPILDAGAIQFLDGSLRLGQISRVLTDVDAYINHEESEDWLRQSISHILPILGNLPGNWHHCLVAFSSNSLPVIGVISELPGVHIFSGFSNPLVLIPPLAQRFAKFLSGTEDDIIPQFSDFLILTGS, MSLDPVGPISDEETSYYVRLQYNGEFLPLFTKVDGITYKKDKSDYSPLKPSFIAGGGAFGYKMDDIRVDVEGVYSYLNKNDVKDVTFDPANTIADSVTAISGLVNVYYDIAIEDMPITPYIGVGVGATYISTPLEPAVNDQKSKFGFAGQVKAGVSYDVTPEVKLYAGARYFGSYGANFDGKKTDPKDSTRQVTDAGAYKVLYSTVGAEAGVAFNFEGHHHHHH, MGSDKIHHHHHHMARSWLDYKTQAWVQWCPGCGDFGILNSIYRAVSELGIDPENLAVVGGIGCSGRTTYYVKGSNFHALHGRAIPVATGVKLANPHLNVIVAGGDGDLMGIGGGHFVALGRRNLNITVLLFDNAVYGLTKGQAAPTLPAWVKTKALSMPNIHDNINPVLLAFAAGYTFIARGYAYHTQQLKELIKTAVRHRGAALVDILQPCPTYNNIMTNKWYEERIYYVDQEEGYDPIIRTPEEFQKKAPAIAAKLMEFGDRIPLGILYWNQTRESFEERLEKIMPGYMSAPPATRRIELEGKPFLHPFDIFKDRLVTP

Soluble on expression in E. coli, soluble:
MAHHHHHHMTESTHLIDAGCFISQMNELVLIDPLYMNYVITNYFNYLINDKNELLPKESLNGVYFENAKPGLWSSFAIKEKNIFLPNSQKMEQNMIDLGIDKNYGNEIITSFACFNNTEFMHEYLTVEKLNELKWEKFESNINCIGNHNNGNIYKSQSKEEDKPINFSNYFTNILTVESGQVGLFCTESIKNCTNALLEKYEIYDIKNKEELDNFFNKNMNDLYPWYNKICNLTLSSSITIIDYIDMPLGSVCMSGSDCVSNYLCEVVKDDITGEIWAIRVNFFNPFK, SNAKSEIGKYAPFFSLPNAKGEKITRSSDAFKQKSLLINFWASWNDSISQKQSNSELREIYKKYKKNKYIGMLGISLDVDKQQWKDAIKRDTLDWEQVCDFGGLNSEVAKQYSIYKIPANILLSSDGKILAKNLRGEELKKKIENIVEEA, MSLKRYSGFLIDLDGTMYRGSEVITEAVAFVKQLEKQSASYLFVTNNSTKSPETVATLLKSMDVPATKEHVFTSSMAMASYLTRTKEFVRAFVIGEEGLLESLKESGMMVSEDEQPDYVVMGLDRAISYEKLAKAATYVRQGAKFFITNGDAALPTEKGLMPGNGSLAAVVATTTGVKPFVVGKPSPIIIEEALKRLGTTKEETLLIGDNYDTDILAGIHAGIDTLLVHTGVTTKEALKQKEAQPTYTCESLADWQRSIEEEGHHHHHH, MGHHHHHHHHHHSSGHIEGRHMAAVTLHLRAETKPLEARAALTPTTVKKLIAKGFKIYVEDSPQSTFNINEYRQAGAIIVPAGSWKTAPRDRIIIGLKEMPETDTFPLVHEHIQFAHCYKDQAGWQNVLMRFIKGHGTLYDLEFLENDQGRRVAAFGFYAGFAGAALGVRDWAFKQTHSDDEDLPAVSPYPNEKALVKDVTKDYKEALATGARKPTVLIIGALGRCGSGAIDLLHKVGIPDANILKWDIKETSRGGPFDEIPQADIFINCIYLSKPIAPFTNMEKLNNPNRRLRTVVDVSADTTNPHNPIPIYTVATVFNKPTVLVPTTAGPKLSVISIDHLPSLLPREASEFFSHDLLPSLELLPQRKTAPVWVRAKKLFDRHCARVKRSSRL, MSLEEIETDVLVIGGGPGGMSAAINAGKYGAKVLLVDENPFLGGQLVKQTHRFFGSAKERAGTRGIKIAGILEEELNSIENVEVRRETRVFGIYNGEAGAYQRLNDDEGKLLRIKAKKIVVATGAYERTLIFENNDLPGVYGAGGVQTLMNVYGIKPGNMGLIVGSGNVGLILTYQLMQAGVNVAAIVEAMPRIGGYFVHAAKVRRLGVPIYVRHTILKAIGRKSVEGAVIAQLDDRWQPIPGTEKEIKCDFICVAVGLSPTHELLYQAGCEMKFVPELGGIVPLRTRFNETSVKGLYVAGDVAGIEEATAAIMEGRIAGIHAAVTLGYGGEEAKKELDEAVKEIEEFRAGPFGERIVCGLEKCTLESEGHHHHHH, MSSMVEVEHWNTLRLRIYIGENDKWEGRPLYKVIVEKLREMGIAGATVYRGIYGFGKKSRVHSSDVIRLSTDLPIIVEVVDRGHNIEKVVNVIKPMIKDGMITVEPTIVLWVGTQEEIKKFEEDAIAERQ, MAEEFVTLKDVGMDFTLGDWEQLGLEQGDTFWDTALDNCQDLFLLDPPRPNLTSHPDGSEDLEPLAGGSPEATSPDVTETKNSPLMEDFFEEGFSQEIIEMLSKDGFWNSNFGEACIEDTWLDSLLGDPESLLRSDIATNGESPTECKSHELKRGLSPVSTVSTGEDSMVHNVSEKTLTPAKSKEYRGEFFSYSDHSQQDSVQEGEKPYQCSECGKSFSGSYRLTQHWITHTREKPTVHQECEQGFDRNASLSVYPKTHTGYKFYVCNEYGTTFSQSTYLWHQKTHTGEKPCKSQDSDHPPSHDTQPGEHQKTHTDSKSYNCNECGKAFTRIFHLTRHQKIHTRKRYECSKCQATFNLRKHLIQHQKTHAAKTTSECQECGKIFRHSSLLIEHQALHAGEEPYKCNERGKSFRHNSTLKIHQRVHSGEKPYKCSECGKAFHRHTHLNEHRRIHTGYRPHKCQECVRSFSRPSHLMRHQAIHTAEKPYSCAECKETFSDNNRLVQHQKMHTVKTPYECQECGERFICGSTLKCHESVHAREKQGFFVSGKILDQNPEQKEKCFKCNKCEKTFSCSKYLTQHERIHTRGVKPFECDQCGKAFGQSTRLIHHQRIHSRVRLYKWGEQGKAISSASLIKLQSFHTKEHPFKCNECGKTFSHSAHLSKHQLIHAGENPFKCSKCDRVFTQRNYLVQHERTHARKKPLVCNECGKTFRQSSCLSKHQRIHSGEKPYVCDYCGKAFGLSAELVRHQRIHTGEKPYVCQECGKAFTQSSCLSIHRRVHTGEKPYRCGECGKAFAQKANLTQHQRIHTGEKPYSCNVCGKAFVLSAHLNQHLRVHTQETLYQCQRCQKAFRCHSSLSRHQRVHNKQQYCL, MSILRIHAREIFDSRGNPTVEVDLYTAKGLFRAAVPSGASTGIYEALELRDNDKTRFMGKGVSQAVEHINKTIAPALVSKKVNVVEQEKIDKLMIEMDGTENKSKFGANAILGVSLAVCKAGAVEKGVPLYRHIADLAGNPEVILPVPAFNVINGGSHAGNKLAMQEFMILPVGASSFREAMRIGAEVYHNLKNVIKEKYGKDATNVGDEGGFAPNILENKEALELLKTAIAKAGYTDQVVIGMDVAASEFYRSGKYDLDFKSPDDPSRYITPDQLADLYKSFVQNYPVVSIEDPFDQDDWGAWQKFTASAGIQVVGDDLTVTNPKRIAKAASEKSCNCLLLKVNQIGSVTESLQACKLAQSNGWGVMVSHRSGETEDTFIADLVVGLCTGQIKTGAPCRSERLAKYNQILRIEEELGSKAKFAGRSFRNPLAK, MSFVQPGLAQEKERMWRTLTVSGRGVESIPTTLSEVSLGVEIQGKTAQEVQHEAARRSSAVVALLKSRNVEKLQTTGIRLNPVYSYNNNVQRITGYAASNTVNFRIATEKAGTLLDEAVKAGATQINGISFVATDEAIASARQQALKEATQDAQQQASAVFSSLGFQAKEVVSIQVGGATAPPPPILYRAEAAKLSSADASTPVIGGEQQVEASVTLQISYLEHHHHHH, MIFTYNREHVGDTLMVIVKDSQGAKLDVDRRGQVARVYLQDSKETVAWNIFEVSSLIVIEGAGQITLSDQDIKILNAELLKEGFEDSLVNNIEPTFVVAQIKEIIDHPDSDHLHICQAEINDGKTVQIVCGAPNASVGLKTVAALPGAMMPNGSLIFPGKLRGEDSFGMLCSARELALPNAPQVRGIIELSDQVIVGESFDANKHWKNLEHHHHHH
